Among the data in article PMC6015732 are Kd values, retold here.

By Kd is commonly meant the concentration at which binding is half-saturated.

What all share (experiment): SPR
A general note: In SPR one partner is held on a chip, and binding of the other changes the refractive index at the surface.

For test [1], the target named is RG801 (Fc domain of glycosylated clone 801 constructed with the Fab arms of Rituxan) (human).
For test [2], the target named is IgG1 (wild-type glycosylated IgG1) (human) [IgG part: P01857].
Test [3] has as its target RA801 (Fc domain of aglycosylated clone 801 constructed with the Fab arms of Rituxan) (human).
Test [4] has as its target RG802 (Rituxan clone 802, glycosylated) (human).

Substance “human FcγRI (monomeric, soluble) (from UniProt P12314 16-292) (receptor)” returned a Kd in test [1] of 648 nM.
As for “monomeric human FcRn–β2-microglobulin (from UniProt P55899 24-365; P61769 21-119) (complex)”, the Kd in test [2] came to 623 nM; in test [3] it was 959 nM; in test [1] it was 283 nM; in test [4], 289 nM.
